From patent publication US10711041B2, “Lyophilisate containing a cyclic peptide of formula X1-[sequence]-X2” (priority 2013, dated 2020)
“Also recorded” adds a separate entry of the source. Bridges are numbered along the chain shown (N, C = ends). Where no end group is shown, it is not given here.

How the values were obtained:
[1] = biological target: T1, amilorid-sensitive Sodium Ion Channel (ENaC) (Homo sapiens, UniProt P37088); experiment: Patch-clamp whole cell, amilorid-sensitive sodium ion current in A549 cells; format: cell-based
T1 construct: Macroscopic Sodium Ion Currents were derived from human lung epithelian cells A549; endogenous in cells; host or cells: A549 human lung epithelial cells
T1 sequence (P37088 1-669): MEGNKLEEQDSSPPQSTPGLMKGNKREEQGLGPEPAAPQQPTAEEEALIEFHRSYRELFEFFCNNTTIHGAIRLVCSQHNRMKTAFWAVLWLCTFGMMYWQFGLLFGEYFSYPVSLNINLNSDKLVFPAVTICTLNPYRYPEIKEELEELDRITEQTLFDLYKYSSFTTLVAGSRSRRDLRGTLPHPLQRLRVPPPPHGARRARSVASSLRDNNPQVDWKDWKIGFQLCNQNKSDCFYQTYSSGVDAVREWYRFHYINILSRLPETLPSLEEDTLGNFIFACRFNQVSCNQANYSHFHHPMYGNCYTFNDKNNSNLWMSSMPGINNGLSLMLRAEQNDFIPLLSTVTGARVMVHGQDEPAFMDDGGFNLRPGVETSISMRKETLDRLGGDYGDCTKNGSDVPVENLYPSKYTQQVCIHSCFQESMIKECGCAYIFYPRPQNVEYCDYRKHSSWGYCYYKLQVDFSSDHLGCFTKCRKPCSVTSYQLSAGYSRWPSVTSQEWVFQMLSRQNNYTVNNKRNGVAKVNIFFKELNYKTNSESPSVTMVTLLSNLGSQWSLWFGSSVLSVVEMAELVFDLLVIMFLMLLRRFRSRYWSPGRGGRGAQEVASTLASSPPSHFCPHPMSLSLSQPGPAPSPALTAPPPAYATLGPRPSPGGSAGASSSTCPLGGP
T1 sequence (P51168 1-640 partner): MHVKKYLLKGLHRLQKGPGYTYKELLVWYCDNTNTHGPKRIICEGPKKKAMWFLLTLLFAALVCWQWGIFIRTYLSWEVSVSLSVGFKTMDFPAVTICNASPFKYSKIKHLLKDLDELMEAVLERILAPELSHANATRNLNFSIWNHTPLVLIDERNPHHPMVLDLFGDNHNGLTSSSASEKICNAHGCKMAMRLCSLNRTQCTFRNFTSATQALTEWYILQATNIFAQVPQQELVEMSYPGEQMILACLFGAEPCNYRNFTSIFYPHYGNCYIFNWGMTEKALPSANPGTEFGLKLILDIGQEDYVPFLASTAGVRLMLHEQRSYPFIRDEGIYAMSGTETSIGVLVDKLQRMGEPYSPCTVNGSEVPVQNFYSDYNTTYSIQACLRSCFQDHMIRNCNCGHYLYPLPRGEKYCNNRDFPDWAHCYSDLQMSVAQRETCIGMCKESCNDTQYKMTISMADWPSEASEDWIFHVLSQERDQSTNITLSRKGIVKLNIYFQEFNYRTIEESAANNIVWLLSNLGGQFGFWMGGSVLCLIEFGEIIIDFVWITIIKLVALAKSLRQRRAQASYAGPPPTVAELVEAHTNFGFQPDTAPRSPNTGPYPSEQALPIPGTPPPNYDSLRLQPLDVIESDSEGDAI
T1 sequence (P51170 1-649 partner): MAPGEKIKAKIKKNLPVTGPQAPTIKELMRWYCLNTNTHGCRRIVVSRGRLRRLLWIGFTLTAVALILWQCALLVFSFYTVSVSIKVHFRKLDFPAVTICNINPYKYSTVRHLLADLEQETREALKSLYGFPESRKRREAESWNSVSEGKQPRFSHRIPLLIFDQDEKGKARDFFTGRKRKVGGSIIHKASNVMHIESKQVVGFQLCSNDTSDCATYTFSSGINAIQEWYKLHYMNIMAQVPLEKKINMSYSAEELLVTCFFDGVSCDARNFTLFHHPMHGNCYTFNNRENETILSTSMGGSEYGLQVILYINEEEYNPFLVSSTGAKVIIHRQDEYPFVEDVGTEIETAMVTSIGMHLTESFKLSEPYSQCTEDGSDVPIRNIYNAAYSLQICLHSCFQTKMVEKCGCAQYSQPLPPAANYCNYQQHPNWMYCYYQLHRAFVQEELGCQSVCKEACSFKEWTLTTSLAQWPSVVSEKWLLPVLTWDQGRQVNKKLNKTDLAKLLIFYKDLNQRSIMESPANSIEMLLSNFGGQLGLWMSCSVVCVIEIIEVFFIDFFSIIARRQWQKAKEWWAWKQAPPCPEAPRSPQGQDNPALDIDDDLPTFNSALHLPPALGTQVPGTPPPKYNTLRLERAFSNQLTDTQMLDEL
Protocol: Macroscopic Sodium Ion Currents were derived from human lung epithelian cells A549 in the “whole cell” configuration by means of the “Patch-clamp” technique (Hamill et al, Pflugers Arch. 1981, 391(2):85-100, 1981). For the currents in the “whole cell” configuration the following bath- and electrode solutions were used:
Bath solution: 135 mM sodium methansulfonate, 10 mM NaCl, 2.7 mM KCl, 1.8 mM CaCl2, 2 mM MgCl2, 5.5 mM glucose, and 10 mM HEPES, pH 7.4.
Electrode solution: 120 mM potassium methansulfonate, 15 mM KCl, 6 mM NaCl, 1 mM Mg2ATP, 2 mM Na3ATP, 10 mM HEPES, and 0.5 mM EGTA (pH 7.2).
Cover glasses with thereon cultivated cells were transferred into a 1 ml containing trial bath, fixed onto the microscope table (Axiovert 100, 400-fold enlargement) and the cells were superfunded with the above described bath solution. Subsequent from an appropriate cell (sticking on the cover glass) the current was deduced. […] On receipt of a “Gigaohm-Seal” a defined membrane hold potential was created via a preamplifier (CV-4 Headstag, Axon Instruments) and amplifier (Axopatch 1D, Axon Instr.) and the current which thereby flows through the ion channels is measured.
That protocol was done before (control) and after addition of the cyclic proteins. The thus obtained currents were recorded and analyzed by means of the program PCLAMP 6.0. […]

[2] = Chemical stability of condensed aerosol by reverse HPLC/MS; format: physicochemical; details: Mesh-Type nebulizer, aerosol condensed in cooling trap
Protocol: Since proteins and peptides occasionally may be rather unstable, it was investigated, whether the cyclic peptides of amino acid sequence SEQ ID NO:1 to SEQ ID NO:6 in dissolved preparation during conversion into an aerosol remain stable. For that the cyclic peptides were dissolved in water as described in example 4. After filling into the storage container of a nebulizer the aqueous solution of the cyclic peptides were converted into an aerosol. For that a “Mesh-Type” nebulizer was used. The biological activity of the collected aerosols was determined by means of the Patch Clamp method. Thereby macroscopic currents of A549 cells were deduced in the “whole cell” configuration of the “Patch-clamp” technique, as described under “Electrophysiological Investigations of the Amilorid-sensitive Sodium Ion Channel (ENaC)”.
The chemical stability of the condensed aerosols was determined by means of reverse HPLC/MS.

| Molecule | biological activity (in words) ([1]; amilorid-sensitive sodium current) | EC50 (activity on cellular amilorid-sensitive sodium ion current) ([1]; whole cell patch clamp) | chemical stability during transformation into an aerosol [2] |
| --- | --- | --- | --- |
| Cyclo(CGQREAPAGAAAKPWYC) (disulfide 1-17) [SEQ ID NO: 7, reference compound] | biologically inactive; also recorded: not active | no activity |  |
| C[C@@H]1NC(=O)CNC(=O)[C@H](CCC(=O)O)NC(=O)[C@@H]2CCCN2C(=O)[C@H]([C@@H](C)O)NC(=O)[C@H](CCC(=O)O)NC(=O)[C@H](CCCNC(=N)N)NC(=O)[C@H](CCC(N)=O)NC(=O)CNC(=O)[C@@H](N)CSSC[C@@H](C(=O)O)NC(=O)[C@H](Cc2ccc(O)cc2)NC(=O)[C@H](Cc2c[nH]c3ccccc23)NC(=O)[C@@H]2CCCN2C(=O)[C@H](CCCCN)NC(=O)[C@H](C)NC(=O)[C@H](CCC(=O)O)NC1=O [SEQ ID NO: 1] |  |  | keeps its biological, as well as its chemical stability |
